Experimental data reported in patent US20220144943A1 (INTEGRITY BIOVENTURES, published 2022).
Residue numbers refer to the chain shown, from its start.

B1: HC1 (SEQ ID NO: 123) + LC2 (SEQ ID NO: 127) (antibody, human IgG4 S228P, kappa, V domains shown)
VH: QVQLVQSGAEVKKPGASVKVSCKASGYAFTNYLIEWVRQAPGQGLEWMGVINPGSGATNYNQKFQGRVTMTADKSISTAYMELSRLRSDDTAVYFCARRVYFDYWGQGTLVTVSS
VL: EIVMTQSPATLSLSPGERATLSCRASQSISDYLHWYQQKPGQAPRLLIKYASQSISGIPARFSGSGSGSDFTLTISSLEPEDFAVYYCQNGHSFPLTFGQGTKLEIKR
notes: also called HC1 + LC2
B2: HC2 (SEQ ID NO: 124) + LC3 (SEQ ID NO: 128) (antibody, human IgG4 S228P, kappa, V domains shown)
VH: B1 VH with M48I, M70L
VL: B1 VL with E1D, S69T, K103R
notes: also called HC2 + LC3
B3: HC3 (SEQ ID NO: 125) + LC3 (SEQ ID NO: 128) (antibody, human IgG4 S228P, kappa, V domains shown)
VH: B1 VH with I76T, A79V, R85S, D89E
VL: B1 VL with E1D, S69T, K103R
notes: also called HC3 + LC3
B4: HC3 (SEQ ID NO: 125) + LC2 (SEQ ID NO: 127) (antibody, human IgG4 S228P, kappa, V domains shown)
VH: B1 VH with I76T, A79V, R85S, D89E
VL: B1 VL
notes: also called HC3 + LC2
B5: HC3 (SEQ ID NO: 125) + LC1 (SEQ ID NO: 126) (antibody, human IgG4 S228P, kappa, V domains shown)
VH: B1 VH with I76T, A79V, R85S, D89E
VL: B1 VL with M4L, S56T, S69T
notes: also called HC3 + LC1
B6: HC2 (SEQ ID NO: 124) + LC2 (SEQ ID NO: 127) (antibody, human IgG4 S228P, kappa, V domains shown)
VH: B1 VH with M48I, M70L
VL: B1 VL
notes: also called HC2 + LC2
B7: HC1 (SEQ ID NO: 123) + LC3 (SEQ ID NO: 128) (antibody, human IgG4 S228P, kappa, V domains shown)
VH: B1 VH
VL: B1 VL with E1D, S69T, K103R
notes: also called HC1 + LC3
B8: HC2 (SEQ ID NO: 124) + LC1 (SEQ ID NO: 126) (antibody, human IgG4 S228P, kappa, V domains shown)
VH: B1 VH with M48I, M70L
VL: B1 VL with M4L, S56T, S69T
notes: also called HC2 + LC1
B9: HC1 (SEQ ID NO: 123) + LC1 (SEQ ID NO: 126) (antibody, human IgG4 S228P, kappa, V domains shown)
VH: B1 VH
VL: B1 VL with M4L, S56T, S69T
notes: also called HC1 + LC1

target: T1, CD47 (UniProt Q08722 19-139, limits assumed); assay: Octet HTX BLI, antibody on anti-human Fc biosensors, antigen in solution, 1:1 fit
T1 construct: also called Antigen; Cluster of differentiation 47
Procedure: The affinity of 9 humanized antibody combinations and the chimeric parental antibody was evaluated by Octet. Multi-concentration kinetic experiments were performed on the Octet HTX system (ForteBio). Anti-human Fc biosensors (ForteBio) were hydrated in sample diluent (0.1% BSA in PBS and 0.02% Tween 20) and preconditioned in pH 1.9 Glycine. Antigen was diluted by a 7 point, 3 fold serial dilution starting at 500 nM with sample diluent. Antibodies were diluted to 2 ug/mL with sample diluent and then immobilized onto anti-human Fc biosensors. After baselines were established for 30 seconds in sample diluent, the biosensors were moved to wells containing serially diluted antigen to measure the association and dissociation. […] The binding affinities were characterized by fitting the kinetic sensorgrams to a monovalent binding model (1:1 binding).

T1 sequence (Q08722 19-139 limits assumed): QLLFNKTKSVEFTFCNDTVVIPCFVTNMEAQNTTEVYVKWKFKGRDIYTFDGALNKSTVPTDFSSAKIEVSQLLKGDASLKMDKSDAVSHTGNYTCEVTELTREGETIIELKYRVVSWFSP

B1 and B2 are within 1.5-fold of each other in Kd: 0.026 µM for the first, 0.023 µM for the second.

Going from B3 to B4, the Kd rises from 0.015 µM to 0.029 µM (1.9-fold). The first binds more tightly here.

B5 and B6 are within 1.5-fold of each other in Kd: 0.012 µM for the first, 0.018 µM for the second.

B7 and B8 are within 1.5-fold of each other in Kd: 0.015 µM for the first, 0.022 µM for the second.

B9 showed a Kd of 0.015 µM.

B1 and B2 are within 1.5-fold of each other in koff: 0.0041 s⁻¹ for the first, 0.0034 s⁻¹ for the second.

B3 and B4 are within 1.5-fold of each other in koff: 0.0025 s⁻¹ for the first, 0.0036 s⁻¹ for the second.

B5 and B6 are within 1.5-fold of each other in koff: 0.0025 s⁻¹ for the first, 0.003 s⁻¹ for the second.

B7 and B8 are within 1.5-fold of each other in koff: 0.0027 s⁻¹ for the first, 0.0035 s⁻¹ for the second.

For B9, the koff was 0.0025 s⁻¹.

B1 and B2 are within 1.5-fold of each other in kon: 160000 M⁻¹ s⁻¹ for the first, 150000 M⁻¹ s⁻¹ for the second.

B3 and B4 are within 1.5-fold of each other in kon: 170000 M⁻¹ s⁻¹ for the first, 120000 M⁻¹ s⁻¹ for the second.

B5 and B6 are within 1.5-fold of each other in kon: 220000 M⁻¹ s⁻¹ for the first, 170000 M⁻¹ s⁻¹ for the second.

B7 and B8 are within 1.5-fold of each other in kon: 180000 M⁻¹ s⁻¹ for the first, 160000 M⁻¹ s⁻¹ for the second.

Binder B9 has a kon of 160000 M⁻¹ s⁻¹.
